In the test the target is Siglec-10Fc (human) (UniProt Q96LC7). Nature of the test: Biacore (SPR): value printed under the KD line for the control Fc with Siglec-10Fc. No curve is drawn for the control Fc.
Sequence of UniProt Q96LC7 (Q96LC7 17-546): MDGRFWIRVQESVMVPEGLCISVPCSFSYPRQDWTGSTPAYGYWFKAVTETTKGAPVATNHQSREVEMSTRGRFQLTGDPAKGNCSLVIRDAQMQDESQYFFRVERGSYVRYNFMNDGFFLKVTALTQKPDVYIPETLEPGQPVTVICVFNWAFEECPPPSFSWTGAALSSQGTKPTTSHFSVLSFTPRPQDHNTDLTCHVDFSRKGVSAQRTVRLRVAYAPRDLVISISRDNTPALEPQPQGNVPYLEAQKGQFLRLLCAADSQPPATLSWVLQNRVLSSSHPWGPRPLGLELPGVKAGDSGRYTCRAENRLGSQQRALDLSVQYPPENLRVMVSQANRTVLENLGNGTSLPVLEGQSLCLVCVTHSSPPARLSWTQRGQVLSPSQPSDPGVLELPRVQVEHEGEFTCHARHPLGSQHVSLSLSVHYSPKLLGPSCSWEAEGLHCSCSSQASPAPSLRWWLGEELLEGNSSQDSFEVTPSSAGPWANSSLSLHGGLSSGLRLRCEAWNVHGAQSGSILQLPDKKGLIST

In the case of control Fc, the Kd worked out at 16.2 µM.
